Data set [1] relates to McA-RH7777 cells stably expressing human apoB-100 and human apoC-III (A18-C3). The class given is cell-based. The conditions noted are these: for effect on EPA-induced lipid degradation (CLD turnover): cells silenced, transfected or pre-treated, then EPA 0.4 mM, 6 h. The method, then:
(§1) In certain non-limiting examples described herein, McA-RH7777 cells stably expressing human apoB-100 and human apoC-III (designated A18-C3) were used for the studies. […] In addition, these studies, particularly those concerning EPA- or DHA-triggered lysosomal motility and CLD degradation, were also performed using primary rat hepatocytes. Transfection of plasmids encoding proteins of interest, or transfection of siRNA specific for silencing target gene expression, was achieved using the FuGENE HP Extreme reagent (Roche). Representative gene silencing siRNA sequences, which are not meant to be limiting, are described in Table 1, and plasmids encoding proteins of interest are described in Table 2. The effectiveness of siRNA silencing was verified by Western-blotting of cellular content of the target proteins, and by intracellular localization assay using siRNA-Tracker (Mirus Bioscience). Twenty-four h after plasmid transfection, or 48 h after siRNA transfection, the cells were cultured in lipid-rich media containing fetal bovine serum (20%) and OA (0.4 mM). The lipid-laden cells were switched to fresh media supplemented with OA or EPA (0.4 mM). In live imaging experiments, LipidTOX Red (Life Technologies) and LysoTracker (Life Technologies) were added to media prior to EPA treatment, to visualize lipid droplets and lysosomes, respectively. For visualizing peroxisomes, Peroxisome-GFP (Invitrogen) was introduced to the cells 24 h prior to experiments. Quantification of cell lipid contents was achieved either by direct mass measurement (HPTLC) and counting the number of lipid droplets using Image J Lipid Droplet Counter Plug-In, or indirectly by Western blot analysis of cellular content of ADRP. Secretion of apoB and TG-rich lipoprotein was determined by Western blot analysis and metabolic labeling. Mitochondrial β-oxidation was measured using MitoSOX Red (Life Technologies) in situ. Autophagic flux was determined by using Cyto-ID assay (Enzo Life Science) and by monitoring GFP-LC3 clustering in situ. Interaction of Arl8b and subunits of the HOPS complex was determined in situ by the proximity ligation assay (Olink Biosience). Cytoplasmic pH was measured using the cytosolic pHrodo indicator reagent (Invitrogen). Live imaging of fluorescent-tagged proteins was performed 1 h post-EPA treatment. Cells were also collected at the time of EPA treatment for transmission EM and tomography, as well as immuno-EM. For movies, cells were imaged at 60 sec intervals every 5 min, for a total of 30 min.
The A18-C3 cells were cultured in DMEM (Invitrogen) supplemented with fetal bovine serum (20%), penicillin (50 U/mL), streptomycin (50 μg/mL, Invitrogen) and Geneticin/G418 (500 μg/mL, Gibco) at 37° C. in 5% CO2. Transfection was conducted when cells were 60-70% confluence. Appropriate plasmids were mixed with FuGENE HP extreme reagent (Roche Diagnostic), according to manufacturer's protocol, and incubated for 30 min. Twenty-four h after transfection, cells were switched to lipid-rich media containing OA (0.4 mM) for additional 16 h prior to imaging and biochemical analysis. In silencing experiments, appropriate siRNAs were transfected into cells using the X-treme GENE siRNA regent (Roche Diagnostic). Localization of siRNA in transfected cells in situ was carried out using the Cy5 Label IT-siRNA Tracker (Minis Bioscience #7213) according to manufacturer's protocol. Forty-eight h after transfection, cells were switched to lipid-rich media containing OA (0.4 mM) for additional 16 h prior to imaging and biochemical analysis.
Quantification of lipid droplets was carried out using confocal and differential interface contrast (DIC) microscopy. Lipid droplets were stained with LipidTOX Red (Invitrogen) before adding OA or EPA. All images were visualized using a 63× oil immersion objective lens. Z-series stacks were acquired with 0.2 μm steps. […]

In data set [2] the test system is McA-RH7777 cells (A18-C3). Nature of the data set: Live imaging of lysosomal motility and lysosome-CLD interaction (kiss-and-run). It counts as cell-based, rat. The conditions noted are these: cells silenced, transfected or pre-treated (15 min) before EPA. The method, then:
as §1
Cells were grown on 35-mm glass bottom dishes (Ibidi GmbH München, Germany) for 16 h in DMEM supplemented with FBS (20%) and OA (0.4 mM). Cells were imaged using a Zeiss 510 META laser scanning confocal microscope with a heated CO2-controlled stage (5% CO2 at 37° C.). Images were captured at a frame-rate of 30 frame/sec using a 63×. N.A.1.4 objective. Recommended laser lines and filter combinations were used for each dye. For visualization of lipid droplets, lysosomes, mitochondria, and mitochondrial β-oxidation, the respective reagents LipidTOX Red (Invitrogen), LysoTracker (Life Technology), MitoTracker (Life Technology), MitoSox Red (Invitrogen), and Peroxisome-GFP BacMam2.0 (Invitrogen) were introduced into the cells, according to manufacturers' recommendations, prior to EPA treatment.
Cells were cultured with lipid-rich media containing OA (0.4 mM) for 16 h. The lipid-laden cells were switched to fresh media containing EPA (0.4 mM) for 1 h, and the lysosomal movement towards lipid droplets was recorded by time-lapse microscopy. Fluorescent intensity of lysosomal signals at the periphery of selected individual lipid droplet was measured using Image J Live Intensity Profiler Plug-in^31-33 over a period of 40 sec. Quantification for each condition was carried out for 60 individual lipid droplets from three independent experiments. Constant threshold was applied to all of the images in each experiment.

With `Cl.N` [NH4Cl, reference compound], the “effect on EPA-induced lipid degradation (CLD turnover)” value (“effect … (CLD turnover)” for short) in data set [1] is recorded as “inhibited”.
Take `CCC/C=C/C/C=C/C=C/C=N/NN=O` [Triacsin C, reference compound]: in data set [2], the “effect on EPA-triggered lysosomal motility / lysosomal interaction with CLD” value is reported as “blocked”. Besides, the “effect … (CLD turnover)” value in data set [1] is “inhibited EPA-induced lipid degradation”.
With `COC(=O)Nc1nc2ccc(C(=O)c3cccs3)cc2[nH]1` [nocodazole, reference compound], in data set [2], the “effect on EPA-triggered lysosomal motility / lysosomal interaction with CLD” value is “blocks EPA-induced lysosomal movement”. In addition, the “effect … (CLD turnover)” value in data set [1] was “blocked EPA-induced lipid degradation”.

B1: Vps41: HOPS subunit overexpressed from plasmid (GFP-tagged) (protein)
chain: MAEAEEQETESLEESTDESEEESEEEPKLKYERLSNGVTEILQKDAASCMTVHDKFLALGTHYGKVYLLDVQGNITQKFDVSPVKINQISLDESGEHMGVCSEDGKLQVFGLYSGEEFHETFDCPIKIVAVHPQFVRSSCKQFVTGGKKLLLFERTWMNRWKSSVLHEGEGNIRSVKWRGHLIAWANNMGVKIFDITSKQRITNVPRDDISLRPDMYPCSLCWKDAVTLIIGWGTSIKICSVKERHASEMRDLPSRYVEIVSQFETEFYISGLAPLCDQLVVLSYVKEVSEKTEREYCARPRLDIIQPLPETCEEISSDALTVRGFQENECRDYHLEYSEGESLFYVVSPRDVVVAKERDQDDHIDWLLEKKKYEEALMAAEISHRNIKRHKILEIGLAYVNHLVERGEYDMAARKCQKILGKNASLWEYEVYKFKEIGQLKAISPYLPRGDPVLKPLIYEMILHEFLESDYEGFATLIREWPGDLYNNSVIVQAVRDHLKKDSQNKTLLKTLAELYTYDKNYGNALEIYLTLRHKDVFQLIHKHNLFSSIKDKIVLLMDFDSEKAVDMLLDNEDKISIKKVVEELEDRPELQHVYLHKLFKRDHHKGQRYHEKQISLYAEYDRPNLLPFLRDSTHCPLEKALEICQQRNFVEETVYLLSRMGNSRSALKMIMEELHDVDKAIEFAKEQDDGELWEDLILYSIDKPPFITGLLNNIGTHVDPILLIHRIKEGMEIPNLRDSLVKILQDYNLQILLREGCKKILVADSLSLLKKMHRTQMKGVLVDEENICESCLSPILPTDAAKPFSVVVFHCRHMFHKECLPMPSLNAPAQYCNICSAKNRGPGSAILEMKK
As for B1, the “effect on EPA-triggered lysosomal motility / lysosomal interaction with CLD” value in data set [2] is given as “enhanced lysosomal-CLD interaction”. Further, in data set [1], the “effect … (CLD turnover)” value is “block lipid degradation”. Moreover, in data set [1] (co-transfected cells, 6 h post-OA or -EPA), the “effect on lipid degradation when co-expressed with Arl8b^WT, Arl8b^Q75L or Arl8b^T34N” value was “invariably blocks lipid degradation”.

B2: RILP: Rab7 effector, retrograde motor adaptor, overexpressed GFP-tagged from plasmid (protein, UniProt Q96NA2 1-401, looked up)
Rab-interacting lysosomal …: MEPRRAAPGVPGWGSREAAGSASAAELVYHLAGALGTELQDLARRFGPEAAAGLVPLVVRALELLEQAAVGPAPDSLQVSAQPAEQELRRLREENERLRRELRAGPQEERALLRQLKEVTDRQRDELRAHNRDLRQRGQETEALQEQLQRLLLVNAELRHKLAAMQTQLRAAQDRERERQQPGEAATPQAKERARGQAGRPGHQHGQEPEWATAGAGAPGNPEDPAEAAQQLGRPSEAGQCRFSREEFEQILQERNELKAKVFLLKEELAYFQRELLTDHRVPGLLLEAMKVAVRKQRKKIKAKMLGTPEEAESSEDEAGPWILLSDDKGDHPPPPESKIQSFFGLWYRGKAESSEDETSSPAPSKLGGEEEAQPQSPAPDPPCSALHEHLCLGASAAPEA
modifications: GFP tag
For the molecule B2, the “effect on EPA-triggered lysosomal motility / lysosomal interaction with CLD” value in data set [2] was “blocks EPA-triggered lysosomal interaction with LDs”. For the same molecule, the “effect … (CLD turnover)” value in data set [1] is given as “adversely blocked EPA-induced lipid degradation”.

B3: FYCO1: Rab7 effector, anterograde motor adaptor, overexpressed GFP-tagged from plasmid (protein, UniProt Q9BQS8 2-1478, looked up)
FYVE and coiled-coil …: ASTNAESQLQRIIRDLQDAVTELSKEFQEAGEPITDDSTSLHKFSYKLEYLLQFDQKEKATLLGNKKDYWDYFCACLAKVKGANDGIRFVKSISELRTSLGKGRAFIRYSLVHQRLADTLQQCFMNTKVTSDWYYARSPFLQPKLSSDIVGQLYELTEVQFDLASRGFDLDAAWPTFARRTLTTGSSAYLWKPPSRSSSMSSLVSSYLQTQEMVSNFDLNSPLNNEALEGFDEMRLELDQLEVREKQLRERMQQLDRENQELRAAVSQQGEQLQTERERGRTAAEDNVRLTCLVAELQKQWEVTQATQNTVKELQTCLQGLELGAAEKEEDYHTALRRLESMLQPLAQELEATRDSLDKKNQHLASFPGWLAMAQQKADTASDTKGRQEPIPSDAAQEMQELGEKLQALERERTKVEEVNRQQSAQLEQLVKELQLKEDARASLERLVKEMAPLQEELSGKGQEADQLWRRLQELLAHTSSWEEELAELRREKKQQQEEKELLEQEVRSLTRQLQFLETQLAQVSQHVSDLEEQKKQLIQDKDHLSQQVGMLERLAGPPGPELPVAGEKNEALVPVNSSLQEAWGKPEEEQRGLQEAQLDDTKVQEGSQEEELRQANRELEKELQNVVGRNQLLEGKLQALQADYQALQQRESAIQGSLASLEAEQASIRHLGDQMEASLLAVRKAKEAMKAQMAEKEAILQSKEGECQQLREEVEQCQQLAEARHRELRALESQCQQQTQLIEVLTAEKGQQGVGPPTDNEARELAAQLALSQAQLEVHQGEVQRLQAQVVDLQAKMRAALDDQDKVQSQLSMAEAVLREHKTLVQQLKEQNEALNRAHVQELLQCSEREGALQEERADEAQQREEELRALQEELSQAKCSSEEAQLEHAELQEQLHRANTDTAELGIQVCALTVEKERVEEALACAVQELQDAKEAASREREGLERQVAGLQQEKESLQEKLKAAKAAAGSLPGLQAQLAQAEQRAQSLQEAAHQELNTLKFQLSAEIMDYQSRLKNAGEECKSLRGQLEEQGRQLQAAEEAVEKLKATQADMGEKLSCTSNHLAECQAAMLRKDKEGAALREDLERTQKELEKATTKIQEYYNKLCQEVTNRERNDQKMLADLDDLNRTKKYLEERLIELLRDKDALWQKSDALEFQQKLSAEERWLGDTEANHCLDCKREFSWMVRRHHCRICGRIFCYYCCNNYVLSKHGGKKERCCRACFQKLSEGPGSPDSSGSGTSQGEPSPALSPASPGPQATGGQGANTDYRPPDDAVFDIITDEELCQIQESGSSLPETPTETDSLDPNAAEQDTTSTSLTPEDTEDMPVGQDSEICLLKSGELMIKVPLTVDEIASFGEGSRELFVRSSTYSLIPITVAEAGLTISWVFSSDPKSISFSVVFQEAEDTPLDQCKVLIPTTRCNSHKENIQGQLKVRTPGIYMLIFDNTFSRFVSKKVFYHLTVDRPVIYDGSDFL
modifications: GFP tag
Regarding B3, in data set [2], the “effect on EPA-triggered lysosomal motility / lysosomal interaction with CLD” value was “blocks EPA-triggered lysosomal interaction with LDs”. For the same molecule, the “effect … (CLD turnover)” value in data set [1] was “adversely blocked EPA-induced lipid degradation”.

For the origin of these results see patent publication US11298402B2, “Lysosomal degradation of lipids and proteins and method of use thereof” (University of Ottawa, priority 2015, dated 2022).
